Percent of the signal in the dimer peak (with 20 mM DPC), percent of the signal in the dimer peak (without DPC) and stoichiometry N data for 1 substance are collected here from PMC10836841.

In the test the target is PhiKo endolysin (Thermus thermophilus HB27 bacteriophage phiKo). The test is described as follows: AUC; sedimentation velocity, 50,000 rpm, 4°C, 20 mM MES, 150 mM NaCl, pH 6.0, in the absence or presence of 20 mM DPC detergent; PhiKo endolysin 1.2 mg/mL; continuous c(s) distribution (SEDFIT); monomer to dimer.

For the substance PhiKo endolysin (enzyme), the percent of the signal in the dimer peak (with 20 mM DPC) was 15%; the percent of the signal in the dimer peak (without DPC) came out at 2.3%; the stoichiometry N – broadly, a count of units in the complex or per binding partner – is 2.
